Results published in patent US20240124575A1.
Where two headings read alike, the source gives them in different places.

Key:
[1] = molecular target: monkey CD33 protein (monkey); assay: ELISA, coated monkey CD33, antibody 0.001 nM
[2] = molecular target: monkey CD33 protein (monkey); assay: ELISA, coated monkey CD33, antibody 100 nM
[3] = molecular target: monkey CD33 protein (monkey); assay: ELISA, coated monkey CD33, antibody 100 nM; remark: listed apart in the source
[4] = molecular target: monkey CD33 on HEK293T-monkey CD33 cells (monkey); assay: FACS on HEK293T-monkey CD33 cells
[5] = molecular target: monkey CD33 protein (monkey); assay: ELISA, coated monkey CD33, antibody 10 nM
[6] = molecular target: monkey CD33 protein (monkey); assay: ELISA, coated monkey CD33, antibody 1 nM
[7] = molecular target: murine CD33 protein (murine) (UniProt Q63994); assay: ELISA, coated murine CD33, antibody 0.0001 nM
Chain of murine CD33 protein (murine) (Q63994 18-240 limits assumed): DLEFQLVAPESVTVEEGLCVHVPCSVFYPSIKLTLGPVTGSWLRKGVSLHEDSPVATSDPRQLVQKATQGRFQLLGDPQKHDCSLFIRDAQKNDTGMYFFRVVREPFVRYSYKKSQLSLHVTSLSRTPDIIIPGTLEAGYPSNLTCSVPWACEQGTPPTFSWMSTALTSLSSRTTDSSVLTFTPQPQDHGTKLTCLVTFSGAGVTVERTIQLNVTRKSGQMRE

[8] = molecular target: monkey CD33 protein (monkey); assay: ELISA, coated monkey CD33, antibody 0.1 nM
[9] = molecular target: murine CD33 protein (murine) (UniProt Q63994); assay: ELISA, coated murine CD33, antibody 0.001 nM
[10] = molecular target: monkey CD33 protein (monkey); assay: ELISA, coated monkey CD33, antibody 0.0001 nM
[11] = molecular target: monkey CD33 protein (monkey); assay: ELISA, coated monkey CD33, antibody 10 nM; remark: listed apart in the source
[12] = molecular target: murine CD33 protein (murine) (UniProt Q63994); assay: ELISA, coated murine CD33, antibody 0.01 nM
[13] = molecular target: monkey CD33 protein (monkey); assay: ELISA, coated monkey CD33, antibody 0.01 nM
[14] = molecular target: murine CD33 protein (murine) (UniProt Q63994); assay: ELISA, coated murine CD33, antibody 0.1 nM
[15] = molecular target: monkey CD33 protein (monkey); assay: ELISA, coated monkey CD33, antibody 0.0001 nM; remark: listed apart in the source
[16] = molecular target: murine CD33 protein (murine) (UniProt Q63994); assay: ELISA, coated murine CD33, antibody 10 nM
[17] = molecular target: monkey CD33 on HEK293T-monkey CD33 cells (monkey); assay: FACS on HEK293T-monkey CD33 cells; remark: listed apart in the source
[18] = molecular target: murine CD33 protein (murine) (UniProt Q63994); assay: ELISA, coated murine CD33, antibody 100 nM
[19] = molecular target: monkey CD33 protein (monkey); assay: ELISA, coated monkey CD33, antibody 1 nM; remark: listed apart in the source
[20] = molecular target: monkey CD33 protein (monkey); assay: ELISA, coated monkey CD33, antibody 0.01 nM; remark: listed apart in the source
[21] = molecular target: murine CD33 protein (murine) (UniProt Q63994); assay: ELISA, coated murine CD33, antibody 1 nM
[22] = molecular target: monkey CD33 protein (monkey); assay: ELISA, coated monkey CD33, antibody 0.001 nM; remark: listed apart in the source
[23] = molecular target: human CD33 on CHO-K1 cells (CHO-K1-human CD33) (human) (UniProt P20138); assay: FACS, clone CHO-K1-human CD33 B11
Chain of human CD33 on CHO-K1 cells (CHO-K1-human CD33) (human) (P20138 18-364): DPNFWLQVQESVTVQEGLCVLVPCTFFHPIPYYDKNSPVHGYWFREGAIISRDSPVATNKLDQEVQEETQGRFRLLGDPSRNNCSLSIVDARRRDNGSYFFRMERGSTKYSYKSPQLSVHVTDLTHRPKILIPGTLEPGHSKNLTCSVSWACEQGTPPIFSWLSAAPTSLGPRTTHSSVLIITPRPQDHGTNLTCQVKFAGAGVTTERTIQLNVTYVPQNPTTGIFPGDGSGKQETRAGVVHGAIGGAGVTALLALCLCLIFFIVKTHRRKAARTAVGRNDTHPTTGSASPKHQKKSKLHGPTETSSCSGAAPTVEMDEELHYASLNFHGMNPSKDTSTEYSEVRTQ

[24] = molecular target: human CD33 on U937 cells (endogenous) (human) (UniProt P20138); assay: FACS, U937 cells
Chain of human CD33 on U937 cells (endogenous) (human) (P20138 18-364): as above

[25] = molecular target: human CD33 on CHO-K1 cells (CHO-K1-human CD33) (human) (UniProt P20138); assay: FACS, clone CHO-K1-human CD33 B8
[26] = molecular target: human CD33 on CHO-K1 cells (CHO-K1-human CD33) (human) (UniProt P20138); assay: FACS, clone CHO-K1-human CD33 C8

## anti-hel-hIgG1 antibody
[1]
  OD450: 0.07 OD450
[2]
  OD450: 0.06 OD450
[3]
  OD450: 0.08 OD450
[4]
  Max MFI: 107 MFI
[5]
  OD450: 0.06 OD450
[6]
  OD450: 0.05 OD450
[7]
  OD450: 0.06 OD450
[8]
  OD450: 0.05 OD450
[9]
  OD450: 0.06 OD450
[10]
  OD450: 0.05 OD450
[11]
  OD450: 0.05 OD450
[12]
  OD450: 0.06 OD450
[13]
  OD450: 0.04 OD450
[14]
  OD450: 0.06 OD450
[15]
  OD450: 0.06 OD450
[16]
  OD450: 0.07 OD450
[17]
  Max MFI: 322 MFI
[18]
  OD450: 0.08 OD450
[19]
  OD450: 0.04 OD450
[20]
  OD450: 0.05 OD450
[21]
  OD450: 0.06 OD450
[22]
  OD450: 0.04 OD450

## IgG subtype control (antibody)
[23]
  Mean fluorescence intensity of cells: 30.9 MFI
[24]
  Mean fluorescence intensity of cells: 114 MFI
[25]
  Mean fluorescence intensity of cells: 30.9 MFI
[26]
  Mean fluorescence intensity of cells: 30.9 MFI
